This is an account of results in US20210070875A1.

Among the targets are C5aR polypeptide-05 (UniProt P21730); C5aR polypeptide-04 (UniProt P21730); C5aR polypeptide-03 (UniProt P21730).
Holding throughout (test): ELISA, polypeptide coated at 1.0 µg/mL
Assay [1] addresses C5aR extracellular N-terminus polypeptide (UniProt P21730).

B1: 43E8F5B6 (antibody, V domains shown)
VH: EVQLQQSGPELVKPGASVKISCKASGYTFTDYYMSWMKQSHGKSLEWIGDINPNNGDNIYNQKFKGKATLTVDRSSSTAYMDLRSLTSEDSAVYYCARWYYYVSSFSYWYFDVWGTGTTVTVSS
VL: EIVLTQSPTTMAASPGEKITITCSATSSINSNYLHWYQQKPGFSPKLLIYRTSNLASGVPARFSGSGSGTSYSLTIGTMEAEDVATYYCQQGRTIPRTFGSGTKLEIK
For B1, the OD450 nm with C5aR polypeptide-05 is 0.06 OD450 nm; with C5aR polypeptide-04 it was 0.1 OD450 nm; in assay [1], 0.12 OD450 nm; with C5aR polypeptide-03 it was 0.08 OD450 nm.

B2: 5F8E2C11 (antibody, V domains shown)
VH: QVQLRQSGPGLVQPSQSLSITCTVSGFSLTSYGVHWVRQSPGKGLEWLGVIWSGGSTDYNAAFISRLSISKDYSKSQIFLTMNSLQTDDTAIYYCARNSRLGNCFDYWGQGTTLTVSS
VL: DIVMSQSPSSLAVSAGEKVTMSCKSSQSLLNSRTRKNYLAWYQQKPGQSPKLLIYWASTRESGVPDRFTGSGSGTDFTLTISSVQAEDLAVYYCKQSYNLPAFGGGTKLEIK
B2: the OD450 nm was determined as 0.56 OD450 nm with C5aR polypeptide-05, 2.52 OD450 nm with C5aR polypeptide-04, 0.22 OD450 nm in assay [1] and 0.31 OD450 nm with C5aR polypeptide-03.

B3: 9D5A12G7 (antibody, V domains shown)
VH: QVQLKQSGPGLVQPSQSLSITCTVSGFSLTSYGVHWVRQSPGKGLEWLGVIWSGGSTDYNAAFISRLSISKDNSKSQVFFKMNSLQADDTAIYYCARNGLLGNAMDYWGQGTSVTVSS
VL: DIVMSQSPSSLAVSAGEKVTMSCKSSQSLLSSRTRKNYLAWYQQKPGQSPKLLIYWASTRESGVPDRFTGSGSGTDFTLTISSVQTEDLAVYYCKQSYNLLTFGAGTTLELK
Turning to B3, the OD450 nm with C5aR polypeptide-05 turned out to be 0.41 OD450 nm; with C5aR polypeptide-04 it was 2.46 OD450 nm; in assay [1], 0.06 OD450 nm; in the assay with C5aR polypeptide-03 it was 0.06 OD450 nm.

B4: 8B5D1A9 (antibody, V domains shown)
VH: QVQLKQSGAELVKPGASVKISCKTSGYIFTDYYINWMKQRPGQGLEWIGKIGPGSGTTFYNEKFKGKATLTADKSSTTLYMQLSSLTAEDSAVYFCTRRGYYSSSYFYWGQGTTLTVSS
VL: DIVMTQSPSSLSVSAGEKVIMSCKSSQSLLNSERQKNYLAWYQQKPGQSPKLLIYGASTRESGVPDRFTGSGSGTDFTLTISSVQAEDLAVYYCLNDHSYPLTFGAGTKLELK
As to B4, the OD450 nm worked out at 0.08 OD450 nm in the assay with C5aR polypeptide-05, 0.1 OD450 nm with C5aR polypeptide-04, 2.5 OD450 nm in assay [1] and 0.05 OD450 nm with C5aR polypeptide-03.

B5: 2A12B2B2 (antibody, V domains shown)
VH: QVQLQQPGADLVKPGASVKMSCKASGYILTTYWITWVKQRPGQGLEWIGDIHPGSGSTKYNEKFKSKATLTVDTSSSTAYMQLTRLSSEDSAVYYCARRDYWGQGTTLTVSS
VL: DIQMTQTTSSLSASLGDKVTISCRASQDISNYLSWYQQKPDGTVKLLIYWISRLHSGVPSRFSGSGSGTDFSLTISNLEQEDIATYFCQQGNSLPPTFGGGTKLEVK
Consider B5, for which the OD450 nm turned out to be 0.29 OD450 nm with C5aR polypeptide-05, 2.34 OD450 nm in the assay with C5aR polypeptide-04, 0.05 OD450 nm in assay [1] and 0.06 OD450 nm with C5aR polypeptide-03.
